Reference: patent US20250339569A1, “CARBONIC ANHYDRASE IX LIGANDS” (priority 2021, published 2025)

Biological target: human carbonic anhydrase 9 (CAIX) (human), Q16790
Assay: FACS competition on HT-29 cells, competitor tracer 3BP-2776; category A = pIC50 >8.0

pIC50: > 8 pic50
Binder: VCCEPDWLTWCC (modifications not checked) [3BP-4179]
